Experimental data as given in US7745192.

Target: human fibrinogen (UniProt P02671)

## thrombin resulting from action of Brown snake venom protease
  SDS PAGE banding patterns of washed fibrin clots: thrombin resulting from action of Brown snake venom protease converts fibrinogen to fibrin in a similar manner as normal α-thrombin
